Results: article PMC6947841

Target: anti-TSLP-scFv-Fc-M4 (mutated recombinant antibody) (human)
Test: BLI

fold change of affinity against scFv-Fc-84: 10 fold
Substance: thymic stromal lymphopoietin (TSLP), standard recombinant human TSLP protein (from UniProt Q969D9 29-159) (ligand)
